{"source": "paper PMC11077067", "about": "“Protein G-quadruplex interactions and their effects on phase transitions and protein aggregation”", "key": {"Znf706 A2C-AF488": {"target": "T1, Znf706 A2C-AF488 (Homo sapiens, UniProt Q9Y5V0 1-76, A2C)", "T1 sequence": "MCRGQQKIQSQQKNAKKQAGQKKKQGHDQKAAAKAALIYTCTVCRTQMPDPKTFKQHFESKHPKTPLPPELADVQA", "test": "fluorescence anisotropy; FP/anisotropy: 20 mM NaPi, 100 mM KCl, 0.05% NaN3, pH 7.4, 25 C (LiCl variant: 20 mM Tris-HCl, 100 mM LiCl, pH 7.4; NaCl variant: 20 mM NaPi, 100 mM NaCl, pH 7.4); NMR: 20 mM NaPi, 100 mM KCl, 7.5% D2O, pH 7.4, 4-50 C", "details": "protein: recombinant, tags: none (His6-SUMO cleaved), AF488 label"}, "Znf706 A2C-MTSL": {"target": "T2, Znf706 A2C-MTSL (Homo sapiens, UniProt Q9Y5V0 1-76, A2C)", "T2 sequence": "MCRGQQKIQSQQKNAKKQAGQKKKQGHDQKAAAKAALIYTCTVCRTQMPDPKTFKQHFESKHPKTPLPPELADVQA", "test": "PRE NMR; 2:1 protein:DNA, 100 mM KCl, 4 C; FP/anisotropy: 20 mM NaPi, 100 mM KCl, 0.05% NaN3, pH 7.4, 25 C (LiCl variant: 20 mM Tris-HCl, 100 mM LiCl, pH 7.4; NaCl variant: 20 mM NaPi, 100 mM NaCl, pH 7.4); NMR: 20 mM NaPi, 100 mM KCl, 7.5% D2O, pH 7.4, 4-50 C", "details": "protein: recombinant; tags: none (His6-SUMO cleaved); MTSL spin label; parallel G4"}, "Znf706 [1]": {"target": "T3, Znf706 (Homo sapiens, UniProt Q9Y5V0 1-76)", "T3 sequence": "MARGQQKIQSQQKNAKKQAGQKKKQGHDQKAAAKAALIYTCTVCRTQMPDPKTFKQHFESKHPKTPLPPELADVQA", "test": "fluorescence polarization; 100 mM KCl; range over all G4s; less strong; exact value in figure; FP/anisotropy: 20 mM NaPi, 100 mM KCl, 0.05% NaN3, pH 7.4, 25 C (LiCl variant: 20 mM Tris-HCl, 100 mM LiCl, pH 7.4; NaCl variant: 20 mM NaPi, 100 mM NaCl, pH 7.4); NMR: 20 mM NaPi, 100 mM KCl, 7.5% D2O, pH 7.4, 4-50 C", "details": "protein: recombinant; tags: none (His6-SUMO cleaved); chain copies: 2; label: 5' 6-FAM; hybrid G4"}, "[2]": {"target": "T4, Znf706 N-terminal peptide (Homo sapiens, UniProt Q9Y5V0 1-35)", "T4 chain": "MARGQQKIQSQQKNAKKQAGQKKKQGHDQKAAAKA", "test": "fluorescence polarization; 100 mM KCl; range over three G4s; FP/anisotropy: 20 mM NaPi, 100 mM KCl, 0.05% NaN3, pH 7.4, 25 C (LiCl variant: 20 mM Tris-HCl, 100 mM LiCl, pH 7.4; NaCl variant: 20 mM NaPi, 100 mM NaCl, pH 7.4); NMR: 20 mM NaPi, 100 mM KCl, 7.5% D2O, pH 7.4, 4-50 C", "details": "label: 5' 6-FAM"}, "Znf706 [3]": {"target": "T3, Znf706", "test": "fluorescence polarization; 100 mM KCl; range over all G4s; strong; exact value in figure; FP/anisotropy: 20 mM NaPi, 100 mM KCl, 0.05% NaN3, pH 7.4, 25 C (LiCl variant: 20 mM Tris-HCl, 100 mM LiCl, pH 7.4; NaCl variant: 20 mM NaPi, 100 mM NaCl, pH 7.4); NMR: 20 mM NaPi, 100 mM KCl, 7.5% D2O, pH 7.4, 4-50 C", "details": "protein: recombinant; tags: none (His6-SUMO cleaved); chain copies: 2; label: 5' 6-FAM; parallel G4"}, "Znf706 [4]": {"target": "T3, Znf706", "test": "MST; range over all G4s; weakest; exact value in figure; FP/anisotropy: 20 mM NaPi, 100 mM KCl, 0.05% NaN3, pH 7.4, 25 C (LiCl variant: 20 mM Tris-HCl, 100 mM LiCl, pH 7.4; NaCl variant: 20 mM NaPi, 100 mM NaCl, pH 7.4); NMR: 20 mM NaPi, 100 mM KCl, 7.5% D2O, pH 7.4, 4-50 C", "details": "protein: recombinant; tags: none (His6-SUMO cleaved); chain copies: 2; label: 5' 6-FAM"}, "Znf706 [5]": {"target": "T3, Znf706", "test": "NMR; 37 C; FP/anisotropy: 20 mM NaPi, 100 mM KCl, 0.05% NaN3, pH 7.4, 25 C (LiCl variant: 20 mM Tris-HCl, 100 mM LiCl, pH 7.4; NaCl variant: 20 mM NaPi, 100 mM NaCl, pH 7.4); NMR: 20 mM NaPi, 100 mM KCl, 7.5% D2O, pH 7.4, 4-50 C", "details": "protein: recombinant; tags: none (His6-SUMO cleaved); chain copies: 2; hairpin"}, "Znf706 [6]": {"target": "T3, Znf706", "test": "MST; range over all G4s; less strong; exact value in figure; FP/anisotropy: 20 mM NaPi, 100 mM KCl, 0.05% NaN3, pH 7.4, 25 C (LiCl variant: 20 mM Tris-HCl, 100 mM LiCl, pH 7.4; NaCl variant: 20 mM NaPi, 100 mM NaCl, pH 7.4); NMR: 20 mM NaPi, 100 mM KCl, 7.5% D2O, pH 7.4, 4-50 C", "details": "protein: recombinant; tags: none (His6-SUMO cleaved); chain copies: 2; label: 5' 6-FAM; hybrid G4"}, "Znf706 [7]": {"target": "T3, Znf706", "test": "NMR; 100 mM KCl; FP/anisotropy: 20 mM NaPi, 100 mM KCl, 0.05% NaN3, pH 7.4, 25 C (LiCl variant: 20 mM Tris-HCl, 100 mM LiCl, pH 7.4; NaCl variant: 20 mM NaPi, 100 mM NaCl, pH 7.4); NMR: 20 mM NaPi, 100 mM KCl, 7.5% D2O, pH 7.4, 4-50 C", "details": "protein: recombinant; tags: none (His6-SUMO cleaved); chain copies: 2; hairpin"}, "Znf706 [8]": {"target": "T3, Znf706", "test": "MST; range over all G4s; strong; exact value in figure; FP/anisotropy: 20 mM NaPi, 100 mM KCl, 0.05% NaN3, pH 7.4, 25 C (LiCl variant: 20 mM Tris-HCl, 100 mM LiCl, pH 7.4; NaCl variant: 20 mM NaPi, 100 mM NaCl, pH 7.4); NMR: 20 mM NaPi, 100 mM KCl, 7.5% D2O, pH 7.4, 4-50 C", "details": "protein: recombinant; tags: none (His6-SUMO cleaved); chain copies: 2; label: 5' 6-FAM; parallel G4"}, "Znf706 [9]": {"target": "T3, Znf706", "test": "NMR; competitive titration with Bcl2SH G4; FP/anisotropy: 20 mM NaPi, 100 mM KCl, 0.05% NaN3, pH 7.4, 25 C (LiCl variant: 20 mM Tris-HCl, 100 mM LiCl, pH 7.4; NaCl variant: 20 mM NaPi, 100 mM NaCl, pH 7.4); NMR: 20 mM NaPi, 100 mM KCl, 7.5% D2O, pH 7.4, 4-50 C", "details": "protein: recombinant; tags: none (His6-SUMO cleaved); chain copies: 2; blunt"}}, "data": [{"binder": "GGGGCCGGGGCCGGGGCCGGGGCC (structured_DNA)", "note": "[G4C2 4-repeat]", "values": [{"measurement": "binding result", "setting": "Znf706 A2C-AF488", "value": "binds"}]}, {"binder": "TAGGGAGGGTAGGGAGGGT (structured_DNA)", "note": "[cMyc (Pu19_A2A11)]", "values": [{"measurement": "binding result", "setting": "Znf706 A2C-AF488; parallel G4", "value": "binds"}, {"measurement": "binding result", "setting": "Znf706 A2C-MTSL", "value": "binds"}]}, {"binder": "GGGCGCGGGAGGAAGGGGGCGGG (structured_DNA)", "note": "[Bcl2WT, 6-FAM]", "values": [{"measurement": "Kd", "setting": "Znf706 [1]", "value": "~4.47", "unit": "µM"}, {"measurement": "Kd", "setting": "[2]; hybrid G4", "value": "~17.2", "unit": "µM"}]}, {"binder": "TAGGGAGGGTAGGGAGGGT (structured_DNA)", "note": "[cMyc (Pu19_A2A11), 6-FAM]", "values": [{"measurement": "Kd", "setting": "[2]; parallel G4", "value": "~17.2", "unit": "µM"}, {"measurement": "Kd", "setting": "Znf706 [3]", "value": "~4.47", "unit": "µM"}]}, {"binder": "GGCGAGGAGGGGCGTGGCCGGC (structured_DNA)", "note": "[Kit*, 6-FAM]", "values": [{"measurement": "Kd", "setting": "Znf706 [4]", "value": "~4.47", "unit": "µM"}]}, {"binder": "AGGAGGGGGGCGGGA (structured_DNA)", "note": "[Bcl2SH, 6-FAM]", "values": [{"measurement": "Kd", "setting": "[2]; parallel G4", "value": "~17.2", "unit": "µM"}, {"measurement": "Kd", "setting": "Znf706 [3]", "value": "~4.47", "unit": "µM"}]}, {"binder": "GGTTGGGGTTGTTTTCAACCCCAACC (structured_DNA)", "note": "[GGGG hairpin]", "values": [{"measurement": "binding result", "setting": "Znf706 [5]", "value": "no binding"}]}, {"binder": "TTGGGTTAGGGTTAGGGTTAGGGA (structured_DNA)", "note": "[hTel, 6-FAM]", "values": [{"measurement": "Kd", "setting": "Znf706 [6]", "value": "~4.47", "unit": "µM"}]}, {"binder": "GGAAGGAAGGTTTTCCTTCCTTCC (structured_DNA)", "note": "[GGA hairpin]", "values": [{"measurement": "binding result", "setting": "Znf706 [7]", "value": "no binding"}]}, {"binder": "UAGGGUUAGGGUUAGGGUUAGGG (structured_RNA)", "note": "[TERRA, 6-FAM]", "values": [{"measurement": "Kd", "setting": "Znf706 [8]", "value": "~4.47", "unit": "µM"}]}, {"binder": "Bcl2SH duplex (dsDNA) DNA 1: AGGAGGGGGGCGGGA DNA 2: TCCCGCCCCCCTCCT", "values": [{"measurement": "binding result", "setting": "Znf706 [9]", "value": "no binding"}]}]}
